According to patent US20250361311A1 (Xencor, published 2025):

Experiments:
[1] = target: T1, FasL (UniProt P48023 134-281, limits assumed); assay: BLI (Octet RH96, FIG. 22)
T1 sequence (looked up): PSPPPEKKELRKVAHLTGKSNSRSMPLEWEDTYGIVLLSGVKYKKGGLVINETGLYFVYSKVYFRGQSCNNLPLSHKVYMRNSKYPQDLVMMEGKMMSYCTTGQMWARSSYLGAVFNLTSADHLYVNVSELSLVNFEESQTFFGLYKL

[2] = target: LIGHT (UniProt O43557 74-240, limits assumed); assay: BLI (Octet RH96, FIG. 22)
[3] = target: TRAIL (UniProt P50591 114-281); assay: BLI (Octet RH96, FIG. 22)
TRAIL, sequence (P50591 114-281 limits assumed): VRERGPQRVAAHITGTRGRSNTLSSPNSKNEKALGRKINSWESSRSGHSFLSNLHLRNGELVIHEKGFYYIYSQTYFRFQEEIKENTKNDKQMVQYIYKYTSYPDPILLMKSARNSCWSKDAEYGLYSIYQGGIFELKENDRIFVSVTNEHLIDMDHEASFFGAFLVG

[4] = target: T2, membrane-bound TL1A transiently expressed on CHO cells (human, UniProt O95150 1-251); assay: flow cytometry on CHO cells transiently transfected with TL1A, 1 hour at 4 C
T2 construct: whole, on cells
T2 sequence (looked up): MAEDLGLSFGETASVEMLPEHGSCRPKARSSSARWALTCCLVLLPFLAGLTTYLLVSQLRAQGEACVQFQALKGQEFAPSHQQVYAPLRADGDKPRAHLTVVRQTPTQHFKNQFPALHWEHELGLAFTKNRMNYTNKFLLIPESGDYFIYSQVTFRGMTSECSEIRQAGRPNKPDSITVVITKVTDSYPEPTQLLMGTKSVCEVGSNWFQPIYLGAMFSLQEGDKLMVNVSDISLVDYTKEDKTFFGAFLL
Description: Anti-TL1A mAbs were first screened for binding affinity to membrane-bound TL1A. CHO cells were transiently transfected to express TL1A, then were incubated with anti-TL1A mAbs for 1 hour at 4° C. and analyzed by flow cytometry. Hundreds of anti-TL1A mAbs were screened for binding, in order to determine which were the best binders to investigate further. […] The binding data is depicted in FIG. 16A.

[5] = target: T3, soluble recombinant human TL1A trimer (human, UniProt O95150 72-251, limits assumed); assay: SPR at 37 C, soluble TL1A trimer up to 100 nM; apparent KD (KDapp)
T3 construct: also called active TL1A trimer; trimeric TL1A
T3 sequence (looked up): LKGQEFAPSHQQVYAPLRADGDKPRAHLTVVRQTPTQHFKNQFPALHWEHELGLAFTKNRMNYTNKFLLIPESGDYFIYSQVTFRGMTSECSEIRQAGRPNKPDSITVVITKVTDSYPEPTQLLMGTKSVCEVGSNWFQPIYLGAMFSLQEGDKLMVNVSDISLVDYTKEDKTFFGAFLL
Description: In addition to measuring binding to scTL1A, binding to increasing concentrations of soluble recombinant human TL1A trimer (up to 100 nM) was measured at 37C via surface plasmon resonance.

LIGHT, sequence (O43557 74-240 limits assumed): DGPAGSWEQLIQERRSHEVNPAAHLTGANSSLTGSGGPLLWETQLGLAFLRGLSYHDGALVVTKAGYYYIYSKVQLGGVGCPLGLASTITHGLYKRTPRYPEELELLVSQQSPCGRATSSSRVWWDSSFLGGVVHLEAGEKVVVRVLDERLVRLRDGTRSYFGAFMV

binding result [1]: no binding | binding result [2]: no binding | binding result [3]: no binding | EC50 [4]: 1100 pM | Kd [5]: 8 to 10 pM
B1: XENP47942 70416_041[TL1a]_H1L1_Fab IgG1_PVA_/S267K/M428L/N434S (antibody, V domains shown)
VH: QVQLVQSGAEVKKPGASVKVSCKVSGFSVTSYNVHWVRQAPGQGLEWMGVMWSGGNTDYNSKFQGRVTMTRDTSTNTVYMELSSLRSEDTAVYYCARAGRYYHDSNYYWDFPYWGQGTLVTVSS
VL: DIQMTQSPSSVSASVGDRVTITCRASEDIYSGLAWYQQKPGKSPKLLIYGASSLQDGVPSRFSGSGSGTDYTLTISSLQPEDFATYFCQEGLKSPYTFGAGTKLEIKR
notes: also called XmAb942; Xmab942
